Consider 15 molecules from patent publication US20220144922A1 (Adimab, published 2022).

To fix the notation:
B1: ADI-15005 (antibody, V domains shown)
VH: QVQLVESGPALVKPTQTLTLTCSFSGFSLTTRRMCVSWIRQTPGKALEWLARIDWDDDKDYSTSLKTRLTISKDTSKNQVVLTMTNMDPVDTATYYCARTHIYDSSGYYLYYFDYWGQGTLVTVSS
VL: DIVLTQSPSSLSASIGDRVTITCRASQTIASYLNWYQQKPGKAPELLIYAATNLQSGVPSRFSGSGSGTDFTLTISSLRPEDFASYYCQQSYSSPWTFGQGTKVDIK
notes: IgG; also called Antibody Number 124
B2: ADI-15640 (antibody, V domains shown)
VH: QVQLVESGPALVKPTQTLTLTCAFSGFSLTTRGMSVSWIRQPPGKALEWLARIDWDDDKYYSTSLKTRLTISKDTSKNQVVLTMSNMDPVDTATYYCARASLYDSGGYYLFFFDYWGQGTLVTVSS
VL: DIVMTQSPSSLSASVGDRVTITCRASQSIGSYLNWYQQKPGKVPKLLIYAASNLQGGVPSRFRGSGSGTDFTLTISNLQPEDFASYYCQLSYSSLWTFGQGTKVEIK
notes: IgG; also called Antibody Number 204
B3: ADI-15561 (antibody, V domains shown)
VH: QVQLVQSGAEVKKPGSSVKVSCKASGGTFSSYAINWVRQAPGQGLEWMGGIIPAFGTTIYAQRFQDRVTITADKSTSTAYMELRSLRSEDTAVYYCARSPPFWSDYSRGWFDPWGQGTLVTVSS
VL: ETTLTQSPSALSASVGDRVTITCRASQTISGYLNWYQQKPGKAPKLLIYAASSLQSGVPSRFSGSSAGTDFTLSISNLQPEDFATYYCQQSYTTPWTFGQGTKVEIK
notes: IgG; also called Antibody Number 132
B4: ADI-15627 (antibody, V domains shown)
VH: EVQLVESGGGVVQPGRSLRLSCAASGFTFSDYAMHWVRQAPGKGLEWVAVIWYDGGNKYYADSAKGRFTISRDNSKNTLYLQMNSLRAEDTAVYYCAKDRGSIWNVGDGMDVWGQGTTVTVSS
VL: QPVLTQPPSVSVAPGQTARVTCGGNNIGAKSVHWYQQKPGQAPVLVVDDDTDRPSGIPERFSGSNSGNTATLTISRVEAGDEADYYCQVWDASIGPLYVFGTGTKLTVL
notes: IgG; also called Antibody Number 192
B5: ADI-15633 (antibody, V domains shown)
VH: QVQLVQSGAEVKKPGESLKISCKGSGYTFRMYWIGWARLLPGKGLEWIGIIYPGDSDTRYNPSLQGQVTMSVDKSINTAYLQWGSLKASDSAIYYCARLRLHPQSGMDVWGQGTLVTVSS
VL: NFMLTQPHSVSESPGKTVVISCTRSSGSIAGYYVQWYQHRPGSSPTTVIYEDDQRPSGVPDRFSGSVDSSSNSASLTISGLKTEDEADYYCQSYDNAIWVFGGGTKLTVL
notes: IgG
B6: ADI-15626 (antibody, V domains shown)
VH: EVQLVESGAEVKKPGSSVKVSCKASGGTFSSYEISWVRQAPGQGLEWMGGINPMFGAANYAQKFQDRVTIIADKSTGTVYMELSSLRSEDTALYYCARERYPSTDDYYRSGRYYGEWGQGTTVTVSS
VL: ETTLTQSPSTLSASVGDRVTITCRASQSIRSWLAWYQQKPGKAPKLLIYRASTSDSGVPSRFSGSGSGTEFTLTISSLQPDDFAIYYCQQYNSIPVTFGQGTKLEIK
notes: IgG
B7: ADI-15651 (antibody, V domains shown)
VH: EVQLVESGPALVKPTQTLTLTCTVSGGVERMSVSWVRQPPGKALEWLARIDWDDDKYYNTFLKTRLTISKGTSKNEVVLTMTNMDPEDTAIYYCARTNRYDKSGYYLYYLDYWGQGTLVTVSS
VL: DIQMTQSPSSLSASVGDKVTITCRASQTIASYVNWYQQHPGKAPKLLIYLASRLQSGAPSRFSGSGSGTDFTLTILNLQPEDFATYYCQQSYSSFFTFGPGTKVEIK
notes: IgG
B8: ADI-15612 (antibody, V domains shown)
VH: EVQLLESGGDLVQPGGSLRLSCAASGFPFSSHSMNWVRQAPGKGLEWISYISGGSDTIQYADSVKGRFTISRDNVKNSLYLQMNSLRAEDTAVYYCARDQYIWNYVEPLDYWGQGTLVTVSS
VL: DIQMTQSPSSLSASVGDRVTITCRASQDISYYLGWYQQKAGKAPKLLIYAVSNLQTGVPSRFSGSGSGTDFTLTISSLQPEDFATYYCLQDHTCPWTFGQGTKVEIK
notes: IgG
B9: ADI-15658 (antibody, V domains shown)
VH: EVQLVESGGGLVQPGRSLRLSCVTSGFGFDDYAMHWVRQAPGKGLEWVSGIGWNSGGIGYADSVKGRFSISRDNAKNSLYLQMNSLRPEDTAFYYCVKDGTPIAVAGYFEYWGQGTLVTVSS
VL: SYELTQPPSASGTPGQRVTISCSGGRSNIGNNYVYWYQQLPGTAPKLLIYRHDQRPSGVPDRFSGSKSGTSASLAINGLRSEDEADYFCAVWDDSLSCYVFGAGTKLTVL
notes: IgG
B10: ADI-15645 (antibody, V domains shown)
VH: EVQLLESGGGLVQPGGSLRLSCAASGFTFSSYAMSWVRQIPGKGLEWVSTINISGGSTYYADSVKGRFTISRDNSRDTVFLQMNGLRAEDTALYYCARGYHIDWFDFWGQGTLVTVSS
VL: DIVLTQTPSSVSASVGDRVTITCRASQDIGSWLAWYQQKPGKAPQFLIYAASQLQSGVPSRFSGSGSGTDFTLTISSLQPEDFATYYCQQAKSLPRTFGGGTKVDIK
notes: IgG
B11: ADI-15646 (antibody, V domains shown)
VH: EVQLLESGGGLIQPGGSLRLSCGASGFTVTGNYMHWVRQAPGKGLEWVSVIYAGSSTYYADSVRGRFTISRDKARNTLFLQMNRLRAEDTAVYYCARAGVVGEDRSGWYGPDYFHGLDVWGQGTTVTVSS
VL: ETTLTQSPGTLSLSPGERATLSCRASQSIRNNYLAWYQQKPGQPPRLLIYGESRRATGIPGRFSGSGSGTDFTLTISSLEPEDFAVYYCQQYGGSPYTFGQGTKVDIK
notes: IgG; also called Antibody Number 210
B12: ADI-15641 (antibody, V domains shown)
VH: QVQLVESGGGVVQPGRSLRVSCAASGFDFSNYAMHWVRQAPGKGLEWVALISYDGNNKVYADSVKGRFTVSRDNSKNTLYLQMNSLRPEDTAVIYCAKDGYLAPDFWGQGTLVTVSS
VL: QSVLTQPASVSGSPGQSIIISCTGTSSDVGEYDYVSWYQHHPHKAPKLIIYEVSNRPSGVSNRFSGSKSGNTASLTISGLQAEDEADYYCSSYTSSSGQAFGTGTKVTVL
notes: IgG; also called Antibody Number 205
B13: ADI-15619 (antibody, V domains shown)
VH: QVQLVQSGAEAKKPGASVKVSCTASGYTFTNDINWVRQATGQGLEWMGWMNPNNGHTGYGQKFEDRVTLTRDSSRSTAYMELSSLRFEDTAVYYCVYNFWSDSSVSWGRGTLVTVSS
VL: QSVVTQPPSVSGAPGQSVAISCTGSSSNIGPAYDVHWYQQTPGAAPKLLIYGDSNRPSGVPDRFSTSKSGTSASLAITGLQAEDEADYYCQSFDSSLRGYVFGTGTKVTVL
notes: IgG
B14: ADI-15629 (antibody, V domains shown)
VH: EVQLVESGGGLVQPGGSLRLSCAASGFTFSDFAMSWVRQAPGKGLEWVSLIKSSDYAYYADSVRGRFTISRDNSKNTLYLRMNSLRADDTAVYYCAKDADFWSGDSYNGGYNFDSWGQGTLVTVSS
VL: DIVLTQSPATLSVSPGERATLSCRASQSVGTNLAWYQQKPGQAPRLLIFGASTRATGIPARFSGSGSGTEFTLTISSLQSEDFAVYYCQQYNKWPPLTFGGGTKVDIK
notes: IgG
B15: ADI-15576 (antibody, V domains shown)
VH: QVQLVQSGAAVKKPGESLKISCKGFGYSFTKYWIGWVRQVPGKGLEWIGIISPTDSNTRYSPSFRGQVTMSADKSISAAYLQWSSLKASDTAMYYCARHSSPYSSGWYGDTYFFDSWGQGTLVTVSS
VL: QPVLTQPPSASGTPGQRVTISCSGSNSNIGTNTVNWYQQLPGTAPKVLIHNNNERPSGVPDRFSGSKSGTSASLAISGLQSEDEADYYCAAWDDSLRGYVFGTGTKVTVL
notes: IgG; also called Antibody Number 146

By Kd is commonly meant a measure of binding affinity in units of concentration. A high value points to lower affinity.

The target in the first experiment is T1, prefusion-stabilized RSV F ectodomain (DS-Cav1), subtype B (respiratory syncytial virus subtype B).
T1 construct: extracellular domain; also called Prefusion subtype B
The experiment in a line: BLI, IgG on sensor.
Protocol: (§1) IgG binding to DS-Cav1 and FA FP was determined by BLI measurements using a FortéBio Octet HTX instrument (Pall Life Sciences). […] Data was analyzed using the ForteBio Data Analysis Software 7. The data was fit to a 1:1 binding model to calculate an association and dissociation rate, and KD was calculated using the ratio kd/kₐ.
As for B1, the Kd came out at 1400 pM.
In the case of B2, the Kd was 1490 pM.
B3 came in with a dissociation constant Kd of 8620 pM.
On the same count and under the same terms, next, B4: 1610 pM; B5: 896 pM.
On the same count and under the same terms, with B6 the figure was 3390 pM.
B7: the dissociation constant Kd stood at 2080 pM.
The same measure, in the same setting: next, B8: 157 pM.
Consider B9, for which binding was put at a Kd of 1810 pM.
On to B10, for which the Kd came out at 4600 pM. Against the preceding molecule, the Kd is about 2.5-fold higher.
Molecule B11 yielded a Kd of 2620 pM.
The same measure, in the same setting: with B12 the figure was 136 pM.
In turn, B13 gave a Kd of 6910 pM.
B14: the dissociation constant (Kd) was determined as 360 pM.

For the next experiment, the target named is T2, postfusion RSV F ectodomain, subtype B (respiratory syncytial virus subtype B).
T2 construct: extracellular domain; also called Postfusion subtype B
In words: BLI, IgG on sensor. (In BLI a coated tip is dipped into the sample, and binding shifts an interference pattern.)
Protocol: as §1
As to B1, the Kd is 253 pM.
In turn, B2 yielded a dissociation constant (Kd) of 196 pM.
The molecule B15 registered a Kd of 179 pM. This Kd and that of the molecule before are within 1.5-fold of each other.
Still for that read-out and setting: next, B3: 1080 pM; B4: 137 pM; B5: 111 pM.
Still for that read-out and setting: with B6 the figure was 653 pM.
Still for that read-out and setting: with B7 the figure was 453 pM; with B8, 353 pM.
The molecule B9 came in with an equilibrium dissociation constant (Kd) of 169 pM. Against the preceding molecule, the Kd is about 2.1-fold lower.
As for B10, the dissociation constant (Kd) was 352 pM.
In turn, B11 yielded a Kd of 3180 pM.
Same read-out and setting: next, B12: 136 pM; B13: 2210 pM.
On the same count and under the same terms, next, B14: 213 pM.

The target of another experiment is T3, postfusion RSV F ectodomain (F ΔFP), subtype A (respiratory syncytial virus subtype A, UniProt P03420 26-109; P03420 147-524).
T3 construct: extracellular domain; also called Postfusion subtype A
The experiment in a line: BLI, IgG on sensor.
Protocol: as §1
B1 showed a Kd of 237 pM. This lies in the sub-nanomolar range.
Same read-out and setting: with B2 the figure was 169 pM; with B15, 237 pM; with B3, 591 pM.
B4 had a Kd of 158 pM.
The molecule B5 came in with a Kd of 104 pM.
The molecule B6 gave a Kd of 546 pM. This Kd is about 5.2-fold higher than that of the molecule before.
Still for that read-out and setting: next, B7: 230 pM; B8: 416 pM.
Consider B9, for which the affinity, expressed as Kd, was 180 pM.
Turning to B10, the Kd was 367 pM.
The molecule B11 had a Kd of 318 pM.
In the case of B12, the dissociation constant Kd worked out at 161 pM.
On the same count and under the same terms, with B13 the figure was 1760 pM.
Still for that read-out and setting: with B14 the figure was 228 pM.

The next experiment concerns the target RSV F protein of subtype B strain 18537, on virus (respiratory syncytial virus subtype B …, UniProt P13843 26-574). The experiment in a line: cell-based or functional assay.
Take B1: the “Neut IC50 (ug/ml) subtype B” value came out at 2.53 µg/mL.
On to B2, for which the “Neut IC50 (ug/ml) subtype B” value came out at 4.82 µg/mL.
Same read-out and setting: next, B15: 9.86 µg/mL.
For the molecule B3, the “Neut IC50 (ug/ml) subtype B” value was determined as 22.4 µg/mL.
The same measure, in the same setting: with B4 the figure was 2.42 µg/mL.
Still for that read-out and setting: next, B5: > 10 µg/mL; B6: > 10 µg/mL; B7: 3.29 µg/mL.
As for B8, the “Neut IC50 (ug/ml) subtype B” value turned out to be 0.164 µg/mL.
Same read-out and setting: with B9 the figure was > 10 µg/mL.
For B10, the “Neut IC50 (ug/ml) subtype B” value is > 10 µg/mL.
Same read-out and setting: next, B11: > 10 µg/mL; B12: 0.483 µg/mL; B13: 0.377 µg/mL.
As for B14, the “Neut IC50 (ug/ml) subtype B” value was found to be 0.088 µg/mL.

Another experiment addresses RSV F protein of subtype A strain A2, on virus (respiratory syncytial virus subtype A …, UniProt P03420 26-574). The experiment in a line: cell-based or functional assay.
Regarding B1, the “Neut IC50 (ug/ml) subtype A” value amounted to 2.16 µg/mL.
Same read-out and setting: with B2 the figure was > 10 µg/mL.
With B15, the “Neut IC50 (ug/ml) subtype A” value is 6.08 µg/mL.
As for B3, the “Neut IC50 (ug/ml) subtype A” value was found to be 5.63 µg/mL.
Turning to B4, the “Neut IC50 (ug/ml) subtype A” value came to 2.17 µg/mL.
On the same count and under the same terms, with B5 the figure was 12.8 µg/mL; with B6, 14.2 µg/mL.
The same measure, in the same setting: next, B7: 1.6 µg/mL; B8: 0.053 µg/mL; B9: 6.25 µg/mL.
Same read-out and setting: next, B10: > 10 µg/mL; B11: 0.846 µg/mL.
Take B12: the “Neut IC50 (ug/ml) subtype A” value turned out to be 0.184 µg/mL.
On to B13, for which the “Neut IC50 (ug/ml) subtype A” value was 1.45 µg/mL.
As to B14, the “Neut IC50 (ug/ml) subtype A” value turned out to be 0.085 µg/mL.
